System: peptide library, one residue held at a place counted from the S/T acceptor
Assay: relative phosphorylation of the sub-library (ratio to the mean residue at this position); human; higher = residue favoured
Outline: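 Human or orthologue kinase constructs, purified and recombinant, were incubated under kinase-specific conditions in 384-well plates with biotinylated degenerate peptide sub-libraries. Each sub-library fixed one residue at one position around a central Ser/Thr. Incubations lasted 90 min with peptides at 50 μM and 50 μM ATP spiked with γ-32P-ATP, after which spots on streptavidin membranes were phosphorimaged and quantified by densitometry. Relative sub-library phosphorylation is a ratio to the mean residue at that position.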

PRPF4B, construct: aa519-end, sequence (Q13523 519-1007, looked up): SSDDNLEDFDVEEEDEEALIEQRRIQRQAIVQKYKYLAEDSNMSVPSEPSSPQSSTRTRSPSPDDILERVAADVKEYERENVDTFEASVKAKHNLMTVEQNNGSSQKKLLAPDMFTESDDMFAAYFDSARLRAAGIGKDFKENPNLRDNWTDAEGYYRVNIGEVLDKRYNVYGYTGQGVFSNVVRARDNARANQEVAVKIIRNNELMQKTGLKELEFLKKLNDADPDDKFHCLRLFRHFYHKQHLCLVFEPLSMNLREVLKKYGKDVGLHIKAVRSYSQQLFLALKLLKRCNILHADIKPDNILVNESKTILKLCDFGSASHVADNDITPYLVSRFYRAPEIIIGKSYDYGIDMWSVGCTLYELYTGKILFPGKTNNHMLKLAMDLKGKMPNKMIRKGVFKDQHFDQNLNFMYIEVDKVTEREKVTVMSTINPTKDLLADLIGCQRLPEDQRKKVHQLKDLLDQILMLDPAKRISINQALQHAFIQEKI
CSNK2A1, construct: Full length, sequence (P68400 whole entry, looked up): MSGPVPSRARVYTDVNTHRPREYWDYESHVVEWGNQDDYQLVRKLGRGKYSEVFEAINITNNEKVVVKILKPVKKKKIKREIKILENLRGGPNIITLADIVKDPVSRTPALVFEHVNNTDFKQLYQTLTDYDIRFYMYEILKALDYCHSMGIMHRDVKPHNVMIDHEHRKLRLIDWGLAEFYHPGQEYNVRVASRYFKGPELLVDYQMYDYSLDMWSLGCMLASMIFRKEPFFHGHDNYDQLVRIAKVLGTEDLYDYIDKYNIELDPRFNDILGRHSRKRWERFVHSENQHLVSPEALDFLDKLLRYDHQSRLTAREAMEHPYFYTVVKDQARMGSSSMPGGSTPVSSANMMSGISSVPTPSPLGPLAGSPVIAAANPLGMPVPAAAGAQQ

PKN3, construct: Full length (from UniProt Q6P5Z2)
relative phosphorylation
Settings	at +1	at +2	at +3	at +4	at -1	at -2	at -3	at -4	at -5
A fixed	0.497	0.811	0.681	0.955	0.874	1.12	0.679	1.07	0.92
D fixed	0.614	0.652	0.765	0.967	1.01	0.684	0.44	0.823	0.801
E fixed	0.554	0.784	0.848	0.887	1.06	0.791	0.504	1.12	0.719
F fixed	4.24	0.552	0.883	0.671	0.682	0.703	0.562	0.717	0.839
G fixed	0.625	0.52	0.918	1.13	1.12	1.21	0.898	1.08	0.973
H fixed	0.667	1.55	1.32	1.3	1.21	1.12	1.06	1.09	1.12
I fixed	1.14	0.724	0.782	0.714	0.444	0.511	0.427	0.776	1.18
K fixed	0.802	1.67	1.2	1.64	1.55	1.75	1.54	1.55	1.1
L fixed	0.951	0.864	0.894	0.738	0.77	0.569	0.413	0.775	1.34
M fixed	1.83	0.728	0.833	0.858	0.854	0.771	1.28	1.07	0.97
N fixed	0.78	1.17	1	1.19	1.48	1.33	0.713	1.25	1.06
P fixed	0.426	0.432	0.736	1.36	1.56	0.721	0.899	0.924	0.955
Q fixed	0.88	0.806	1.11	1.15	1.36	1.34	0.786	0.922	0.789
R fixed	0.74	3.4	1.4	1.02	1.12	2.24	5.22	1.4	1.5
V fixed	0.892	0.753	0.807	0.716	0.558	0.711	0.496	0.801	1.07
W fixed	0.606	0.683	1.32	0.883	0.524	0.782	0.517	0.85	0.828
Y fixed	0.751	0.898	1.49	0.823	0.812	0.646	0.561	0.786	0.833
pThr fixed	0.747	0.671	0.69	0.944	0.866	0.755	0.532	0.645	0.581
pTyr fixed	0.695	0.952	0.825	0.807	0.585	0.662	0.902	0.676	0.781

CSNK2A1, construct: Full length (from UniProt P68400)
relative phosphorylation
Settings	at +1	at +2	at +3	at +4	at -1	at -2	at -3	at -4	at -5
A fixed	0.479	1.2	0.406	0.847	0.867	1.02	0.979	1.01	1.09
D fixed	9.09	3.13	2.81	2.06	3.14	1.45	1.78	1.79	1.46
E fixed	3.33	2.03	9.11	2.6	2.33	1.37	1.53	1.56	1.2
F fixed	0.24	0.739	0.307	0.878	0.886	1.04	0.97	0.88	0.976
G fixed	0.561	0.782	0.533	1.06	0.687	0.891	1.65	1.03	0.98
H fixed	0.333	0.993	0.347	0.75	0.829	0.968	0.907	0.895	1.08
I fixed	0.208	0.654	0.249	0.811	0.61	0.94	0.759	0.839	0.883
K fixed	0.23	0.374	0.236	0.53	0.48	0.458	0.566	0.76	0.963
L fixed	0.237	0.499	0.246	0.64	0.926	0.693	0.702	0.892	0.726
M fixed	0.259	0.524	0.257	0.916	0.934	0.705	0.823	0.941	0.911
N fixed	0.5	1.42	0.455	0.904	0.796	0.813	1.05	1.04	1.05
P fixed	0.232	0.543	0.412	0.597	0.541	0.778	0.853	0.807	0.751
Q fixed	0.352	0.68	0.4	0.832	0.922	0.678	0.869	0.867	0.808
R fixed	0.221	0.426	0.258	0.553	0.435	0.589	0.657	0.87	0.943
V fixed	0.249	0.923	0.263	0.76	0.751	0.859	0.801	0.826	0.969
W fixed	0.236	1.16	0.328	1.32	0.914	1.12	0.897	0.927	1.15
Y fixed	0.238	0.923	0.385	0.933	0.954	2.62	1.21	1.08	1.06
pThr fixed	5.46	1.84	1.96	6.46	1.96	1.59	2.22	1.83	1.39
pTyr fixed	0.808	2.14	4.29	3.87	3.49	2.41	2.37	1.4	1.47

PRPF4B, construct: aa519-end (from UniProt Q13523)
relative phosphorylation
Settings	at +1	at +2	at +3	at +4	at -1	at -2	at -3	at -4	at -5
A fixed	0.571	0.959	0.8	0.921	1.05	1.22	1.02	1.06	0.939
D fixed	0.544	0.683	0.635	0.83	0.907	0.693	0.586	1.81	1.13
E fixed	0.929	0.685	0.59	0.808	1.25	0.553	0.512	1.16	0.966
F fixed	0.507	1.27	0.722	0.958	0.81	1.27	0.409	0.856	0.905
G fixed	0.774	0.741	1.05	1.4	0.744	1.3	8.94	1.77	0.991
H fixed	0.596	1.07	1.01	1.02	0.844	0.907	0.507	1.01	0.832
I fixed	0.68	1.42	0.911	0.934	0.863	1.21	0.404	0.681	0.831
K fixed	0.56	0.713	1.08	1.03	0.894	0.582	0.382	0.747	1.04
L fixed	0.548	0.954	0.91	0.9	1.03	0.866	0.41	0.866	0.83
M fixed	0.689	1.05	0.747	1.04	1.27	0.815	0.43	0.75	0.842
N fixed	0.665	0.968	1.05	0.83	0.826	0.745	0.538	1.08	0.931
P fixed	5.85	0.725	2.53	1.02	0.785	1.47	0.587	1.13	1.18
Q fixed	0.696	0.791	0.923	0.951	1.25	0.608	0.439	0.858	0.998
R fixed	0.686	0.868	1.42	1.15	1.58	0.625	0.502	0.73	1.28
V fixed	1.56	1.44	0.953	0.882	0.922	1	0.384	0.625	0.987
W fixed	0.532	1.52	0.846	1.31	1.01	2.09	0.512	1.04	1
Y fixed	0.612	1.16	0.825	1	0.969	1.04	0.435	0.812	1.31
pThr fixed	0.638	0.803	0.794	0.583	0.68	0.828	0.697	1.72	0.911
pTyr fixed	0.586	0.825	0.74	0.735	1.15	1.2	0.791	0.882	1.36
